Laboratory results published in patent US12544428B2, “Controlled-release CNP agonists with reduced side-effects” (ASCENDIS PHARMA GROWTH DISORDERS A/S, priority 2016, dated 2026).
Read-outs that look alike come from different tables or passages of the source.

How the values were obtained:
[1] = 0.146 mg CNP-38 eq/kg
Protocol: (§1) Plasma total CNP-38 concentrations (conjugated and released CNP-38) were determined by quantification of the N-terminal signature peptide (sequence: […]) and C-terminal signature peptide (sequence: […]) after tryptic digestion.
(§2) LC-MS analysis was carried out by using an Agilent 1290 UPLC coupled to an Agilent 6550 iFunnel Q-TOF mass spectrometer via an ESI probe. Chromatography was performed on a Waters Acquity BEH300 C18 analytical column (50×2.1 mm I.D., 1.7 μm particle size) with pre-filter at a flow rate of 0.25 mL/min (T=25° C.). Water (UPLC grade) containing 0.2% formic acid (v/v) was used as mobile phase A and acetonitrile (UPLC grade) with 0.2% formic acid as mobile phase B. The gradient system comprised a short isocratic step at the initial parameters of 0.1% B for 3.0 min followed by a linear increase from 0.1% B to 16% B in 17 min. Mass analysis was performed in the single ion monitoring (SIM) mode, monitoring the ions m/z 482.75 [M+2H]^2+ (N-terminal) and m/z 824.36 [M+H]^1+ (C-terminal). As internal standard deuterated CNP-38 peptide was used.
(§3) Calibration standards of CNP-38 conjugate in blank plasma were prepared as follows: The thawed Li-heparin cynomolgous plasma was first homogenized, then centrifuged for 5 minutes. […] These solutions were used for the generation of a calibration curve.
(§4) For sample preparation, protein precipitation was carried out by addition of 300 μL of pre-cooled (0° C.) methanol to 100 μL of the plasma sample. 200 μL of the supernatant were transferred into a new well-plate and evaporated to dryness (under a gentle nitrogen stream at 35° C.). 100 μL of reconstitution solvent (Thermo digestion buffer, order number 60109-101, Thermo Fisher Scientific GmbH, Dreieich, Germany) were used to dissolve the residue. 20 μg of trypsin (order number V5111, Promega GmbH, Mannheim, Germany) were dissolved in 20 μL of 10 mM acetic acid. 2 μL of the trypsin solution were added to each cavity.
(§5) After 4 hours incubation at 37° C. (water bath), 5 μL of a 0.5 M TCEP solution were added to each cavity and incubated again for 5 min at 96° C. After the samples had cooled to room temperature, 3 μL acetonitrile were added. The eluates were transferred into vials. 10 μL were injected into the UPLC-MS system.
Blood samples were collected up to 168 h post dose, and plasma was generated. Plasma total CNP-38 concentrations were determined by quantification of the N-terminal signature peptide (sequence: […]) and C-terminal signature peptide (sequence: […]) after tryptic digestion as described in Materials and Methods.

[2] = 0.146 mg CNP-38 eq/kg; remark: listed apart in the source
Protocol: as §1, §2, §3, §4, §5
Male cynomolgus monkeys (2-4 years old, 3-5 kg) received either a single subcutaneous administration (n=3 animals) of compound 10f or a single subcutaneous (n=3 animals) administration of 11i at a dose of 0.146 mg CNP-38 eq/kg. Blood samples were collected up to 168 h post dose, and plasma was generated. Plasma levels of total CNP-38 content were analyzed as described in example 24. In order to analyze the plasma content of free CNP-38, the blood samples were acidified after withdrawal by adding 20 vol % of 0.5 M sodium citrate buffer pH 4 to stop further CNP-38 release from the conjugate. Free CNP-38 levels in plasma can e.g. be determined by ELISA using a CNP antibody that binds to the ring region of CNP, as described in the literature (U.S. Pat. No. 8,377,884 B2), or by LC-MS/MS.

Permanent Lys26 CNP-38 PEG4×10 kDa Conjugate [Compound 12g]
half life time of CNP-38 content ([1]; single intravenous injection, plasma total CNP-38): approx. 24 h
CNP-38 tmax ([1]; single intravenous injection, plasma total CNP-38, earliest time point analyzed): 0.25 h
dose site reactions ([1]; single iv or sc dose): No dose site reactions were observed
tolerability of dose administrations ([1]; single iv or sc dose): well tolerated
CNP-38 concentration at 168 h ([1]; single subcutaneous injection): ca. 50 % of cmax
CNP-38 tmax ([1]; single subcutaneous injection, plasma total CNP-38): 48 h
bioavailability ([1]; subcutaneous vs intravenous): ca. 50%

Reversible Lys26 CNP-38 PEG2×20 kDa Conjugate [Compound 10f]
dose site reactions ([2]; single sc): No dose site reactions were observed
tolerability of dose administrations ([2]; single sc): well tolerated
Total CNP-38 plasma levels after 120 h ([2]; single sc, C-terminal peptide, below LOQ): < 100 ng/mL
total CNP-38 tmax ([2]; single subcutaneous administration): 12 h
